The chains are these.
B1: E3 ubiquitin-protein ligase CHIP (Mus musculus), Q9WUD1 (parent)
chain: MKGKEEKEGGARLGTGGGGSPDKSPSAQELKEQGNRLFVGRKYPEAAACYGRAITRNPLVAVYYTNRALCYLKMQQPEQALADCRRALELDGQSVKAHFFLGQCQLEMESYDEAIANLQRAYSLAKEQRLNFGDDIPSALRIAKKKRWNSIEERRIHQESELHSYLTRLIAAERERELEECQRNHEGHEDDGHIRAQQACIEAKHDKYMADMDELFSQVDEKRKKRDIPDYLCGKISFELMREPCITPSGITYDRKDIEEHLQRVGHFDPVTRSPLTQEQLIPNLAMKEVIDAFISENGWVEDY
partner: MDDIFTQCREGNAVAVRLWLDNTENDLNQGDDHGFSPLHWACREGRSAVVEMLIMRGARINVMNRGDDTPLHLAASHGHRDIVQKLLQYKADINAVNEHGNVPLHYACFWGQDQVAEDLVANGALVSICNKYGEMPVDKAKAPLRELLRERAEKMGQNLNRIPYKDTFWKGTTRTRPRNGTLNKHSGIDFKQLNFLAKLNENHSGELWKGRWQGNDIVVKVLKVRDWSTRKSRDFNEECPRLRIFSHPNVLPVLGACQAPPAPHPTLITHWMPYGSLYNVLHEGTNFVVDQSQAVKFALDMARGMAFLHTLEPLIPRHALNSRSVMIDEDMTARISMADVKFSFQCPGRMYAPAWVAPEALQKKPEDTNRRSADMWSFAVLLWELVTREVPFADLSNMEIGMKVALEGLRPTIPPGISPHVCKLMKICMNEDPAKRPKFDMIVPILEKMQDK

Variants of B1 are the subject of this assay. The settings on record: with ilk_mouse Ilk.
Regarding K31A, the “effect of a mutation on the interaction” value is given as “decreasing interaction”.

Values taken from IntAct's records for PubMed 23612611.
